Measurements as given in the supplement of paper PMC9112550, “Optimization of the antimicrobial peptide Bac7 by deep mutational scanning” (BMC Biology, 2022).

test system: Escherichia coli TOP10; assay: shrunken log2 fold change of peptide-encoding DNA abundance (4.5 h post-induction vs induction); higher = less antimicrobial activity (less host growth inhibition); conditions: time post-induction: 4.5 h; library: site-saturation at positions 5, 18, 19, 20
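Also: peptides expressed intracellularly from a pBAD plasmid library in pooled LB shake-flask culture, induced with 0.3% L-arabinose, DNA abundance read by NGS, three biological replicates, DESeq2 with apeglm shrinkage.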

Point of comparison: RRIRMRPPRLPRPRPRPCRNPRP, “shrunken log2 fold change” value -0.326. Against it:
- RRIRMRPPRLPRPRPRPSYSPRP — within 0.2 log units, -0.157
- RRIRFRPPRLPRPRPRPHPGPRP — within 0.2 log units, -0.137
- RRIRRRPPRLPRPRPRPLNGPRP — higher, 0.112
- RRIRFRPPRLPRPRPRPQKQPRP — within 0.2 log units, -0.199
- RRIRWRPPRLPRPRPRPYTQPRP — higher, 0.167
- RRIRTRPPRLPRPRPRPKVPPRP — higher, -0.0154
- RRIRMRPPRLPRPRPRPEVLPRP — higher, -0.0436
- RRIRSRPPRLPRPRPRPWMRPRP — higher, 0.709
- RRIRDRPPRLPRPRPRPGCYPRP — higher, 0.0592
- RRIRARPPRLPRPRPRPNMSPRP — higher, 0.12
- RRIRTRPPRLPRPRPRPPCYPRP — within 0.2 log units, -0.139
- RRIRPRPPRLPRPRPRPRRLPRP — higher, 0.279
- RRIRCRPPRLPRPRPRPKAIPRP — higher, -0.0563
- RRIRTRPPRLPRPRPRPIPAPRP — higher, 0.0613
- RRIRTRPPRLPRPRPRPGCWPRP — higher, 0.453
- RRIRIRPPRLPRPRPRPMCKPRP — within 0.2 log units, -0.262
- RRIRERPPRLPRPRPRPKFRPRP — within 0.2 log units, -0.315
- RRIRHRPPRLPRPRPRPLPKPRP — higher, 0.389
- RRIRARPPRLPRPRPRPVVSPRP — higher, 0.188
- RRIRNRPPRLPRPRPRPDNWPRP — lower, -0.532
- RRIRPRPPRLPRPRPRPEKDPRP — higher, -0.0428
- RRIRGRPPRLPRPRPRPSEEPRP — higher, 0.503
- RRIRFRPPRLPRPRPRPMVSPRP — within 0.2 log units, -0.144
- RRIRRRPPRLPRPRPRPKCRPRP — higher, 0.453
- RRIRLRPPRLPRPRPRPEDQPRP — higher, 0.22
- RRIRPRPPRLPRPRPRPRYLPRP — within 0.2 log units, -0.402
- RRIRNRPPRLPRPRPRPLPEPRP — higher, -0.00875
- RRIRDRPPRLPRPRPRPLFAPRP — higher, 0.65
- RRIRERPPRLPRPRPRPLYNPRP — within 0.2 log units, -0.264
- RRIRQRPPRLPRPRPRPHHIPRP — lower, -0.764
- RRIRYRPPRLPRPRPRPLTVPRP — within 0.2 log units, -0.146
- RRIRCRPPRLPRPRPRPALMPRP — higher, -0.011
- RRIRTRPPRLPRPRPRPFKHPRP — higher, -0.126
- RRIRIRPPRLPRPRPRPPRFPRP — higher, 0.0593
- RRIRMRPPRLPRPRPRPDWNPRP — higher, -0.0431
- RRIRTRPPRLPRPRPRPSHLPRP — within 0.2 log units, -0.411
- RRIRRRPPRLPRPRPRPMHNPRP — higher, 0.384
- RRIRTRPPRLPRPRPRPTDHPRP — within 0.2 log units, -0.283
- RRIRGRPPRLPRPRPRPIISPRP — higher, 0.507
- RRIRWRPPRLPRPRPRPHPWPRP — higher, 0.0859
- RRIRERPPRLPRPRPRPWATPRP — higher, 0.127
- RRIRKRPPRLPRPRPRPEEQPRP — higher, 3.17
- RRIRIRPPRLPRPRPRPCGQPRP — within 0.2 log units, -0.279
- RRIRSRPPRLPRPRPRPVEFPRP — lower, -0.928
- RRIRERPPRLPRPRPRPSSHPRP — higher, -0.0471
- RRIRRRPPRLPRPRPRPSDTPRP — higher, -0.0536
- RRIRVRPPRLPRPRPRPCAAPRP — higher, 0.121
- RRIRLRPPRLPRPRPRPDRNPRP — higher, 0.0573
- RRIRPRPPRLPRPRPRPQTQPRP — higher, 0.115
- RRIRIRPPRLPRPRPRPLWPPRP — higher, -0.0906
- RRIRQRPPRLPRPRPRPMKAPRP — higher, 0.181
- RRIRDRPPRLPRPRPRPYFRPRP — within 0.2 log units, -0.318
- RRIRERPPRLPRPRPRPKTDPRP — within 0.2 log units, -0.497
- RRIRERPPRLPRPRPRPKVDPRP — higher, 0.0519
- RRIRYRPPRLPRPRPRPARAPRP — higher, 0.524
- RRIRQRPPRLPRPRPRPGQTPRP — higher, 0.00514
- RRIRWRPPRLPRPRPRPHHYPRP — lower, -0.952
- RRIRARPPRLPRPRPRPKQAPRP — higher, 0.147
- RRIRRRPPRLPRPRPRPGNRPRP — within 0.2 log units, -0.151
- RRIRRRPPRLPRPRPRPKGQPRP — higher, 0.176
- RRIRWRPPRLPRPRPRPDIIPRP — higher, 0.0562
- RRIRQRPPRLPRPRPRPRWCPRP — higher, -0.0737
- RRIRCRPPRLPRPRPRPYQHPRP — within 0.2 log units, -0.381
- RRIRYRPPRLPRPRPRPSPVPRP — lower, -0.612
- RRIRMRPPRLPRPRPRPNSVPRP — higher, -0.0202
- RRIRERPPRLPRPRPRPRLCPRP — within 0.2 log units, -0.426
- RRIRIRPPRLPRPRPRPVSAPRP — higher, 0.0887
- RRIRMRPPRLPRPRPRPNDHPRP — higher, -0.0869
- RRIRARPPRLPRPRPRPIGFPRP — higher, -0.0732
- RRIRFRPPRLPRPRPRPLCDPRP — within 0.2 log units, -0.196
- RRIRYRPPRLPRPRPRPSSTPRP — within 0.2 log units, -0.158
- RRIRGRPPRLPRPRPRPMWPPRP — higher, 1.07
- RRIRLRPPRLPRPRPRPQGCPRP — higher, 0.0879
- RRIRFRPPRLPRPRPRPNTAPRP — lower, -0.986
- RRIRVRPPRLPRPRPRPEYGPRP — higher, -0.00905
- RRIRGRPPRLPRPRPRPSMNPRP — higher, 0.156
- RRIRARPPRLPRPRPRPCFNPRP — higher, 0.0639
- RRIRTRPPRLPRPRPRPLFLPRP — within 0.2 log units, -0.184
- RRIRPRPPRLPRPRPRPVGQPRP — higher, 0.102
- RRIRIRPPRLPRPRPRPMIEPRP — higher, -0.0216
- RRIRSRPPRLPRPRPRPHNGPRP — higher, 0.00483
- RRIRARPPRLPRPRPRPHAKPRP — higher, -0.0556
- RRIRNRPPRLPRPRPRPFGKPRP — higher, -0.0788
- RRIRKRPPRLPRPRPRPQYCPRP — higher, -0.0171
- RRIRGRPPRLPRPRPRPEFRPRP — higher, 0.634
- RRIRIRPPRLPRPRPRPTEEPRP — higher, 0.146
- RRIRFRPPRLPRPRPRPTVCPRP — higher, -0.0464
- RRIRGRPPRLPRPRPRPYGEPRP — higher, 0.398
- RRIRKRPPRLPRPRPRPWLEPRP — higher, -0.00226
- RRIRKRPPRLPRPRPRPNGLPRP — higher, -0.0579
- RRIRKRPPRLPRPRPRPTVKPRP — higher, 0.19
- RRIRMRPPRLPRPRPRPLDDPRP — higher, 3.25
- RRIRWRPPRLPRPRPRPMIHPRP — higher, -0.0666
- RRIRDRPPRLPRPRPRPGPPPRP — higher, 0.733
- RRIRLRPPRLPRPRPRPHEKPRP — higher, 0.0162
- RRIRCRPPRLPRPRPRPTVEPRP — higher, 0.199
- RRIRTRPPRLPRPRPRPRQCPRP — higher, 0.153
- RRIRKRPPRLPRPRPRPYETPRP — higher, 0.00149
- RRIRGRPPRLPRPRPRPCKCPRP — higher, -0.082
- RRIRQRPPRLPRPRPRPRMIPRP — within 0.2 log units, -0.227
- RRIRWRPPRLPRPRPRPGKPPRP — higher, 0.066
- RRIRVRPPRLPRPRPRPLRRPRP — higher, 0.644
- RRIRNRPPRLPRPRPRPPCLPRP — within 0.2 log units, -0.236
- RRIRFRPPRLPRPRPRPTKKPRP — higher, -0.0226
- RRIRLRPPRLPRPRPRPFCHPRP — higher, 0.0449
- RRIRMRPPRLPRPRPRPQWPPRP — within 0.2 log units, -0.132
- RRIRSRPPRLPRPRPRPLTWPRP — higher, -0.104
- RRIRMRPPRLPRPRPRPRSPPRP — higher, 0.921
